Assay results: patent US20200010567A1 (NEURIMMUNE, published 2020)

Assays:
[1] = target: T1, BSA-coupled (GA)15 DPR protein peptide (bovine, conjugated via a bifunctional linker (SMCC) to bovine serum albumin); experiment: indirect ELISA, BSA-coupled peptide coated, antibody titrated [also D00012 FIG. 3C]
T1 construct: also called BSA-(GA)15
Method: (§1) In brief, dipeptide repeat proteins were synthesized and purified by Schafer-N(Copenhagen, Denmark): (GA)₁₅: H-CHHHHHH(GA)₁₅-OH; (GP)₁₅: H-C(GP)₁₅-OH; (GR)₁₅: H-C(GR)₁₅-OH; (PA)₁₅: H-C(PA)₁₅-OH; (PR)₁₅: H—C(PR)₁₅-OH. DPR protein peptides were then conjugated via a bifunctional linker (SMCC) to bovine serum albumin (BSA). 96-well microplates (Corning Incorporated, Corning, USA) were coated with BSA-coupled or -uncoupled dipeptide repeat protein peptides at a concentration of either 5 μg/ml or 20 μg/ml in coating buffer (15 mM Na₂CO₃, 35 mM NaHCO₃, pH 9.42). Non-specific binding sites were blocked for 1 h at room temperature with PBS/0.1% Tween®-20 containing 2% BSA (Sigma-Aldrich, Buchs, Switzerland). Primary antibodies were diluted to the indicated concentrations and incubated 1 h at room temperature, followed by incubation with a donkey anti-human IgG Fcγ-specific antibody conjugated with HRP (Jackson ImmunoResearch Laboratories, Inc., West Grove, USA). Binding was determined by measurement of HRP activity in a standard colorimetric assay. EC₅₀ values were estimated by non-linear regression using GraphPad Prism software (San Diego, USA).

PA20: H-(PA)20HHHHHH-NH2 = target: T2, PA20: H-(PA)20HHHHHH-NH2 (C-terminal amide); experiment: indirect ELISA, coated His-tagged peptide
T2 peptide: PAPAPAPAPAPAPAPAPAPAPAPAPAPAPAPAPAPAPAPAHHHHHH
Procedure, shortened: (§2)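 Antibodies at graded concentrations bound for 1 h at room temperature to wells carrying 50 μg/ml His-tagged repeat peptide (pH 9.42 carbonate coating, 2% BSA block). Bound IgG read colorimetrically via HRP anti-human Fcγ; EC₅₀ estimated by non-linear regression.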

(PA)15: H-C(PA)15-OH = target: T3, (PA)15: H-C(PA)15-OH; experiment: indirect ELISA, uncoupled peptide coated, antibody titrated [also D00015 FIG. 3K]
T3 construct: synthetic, not coupled to BSA; also called poly-PA DPR protein peptide
T3 peptide: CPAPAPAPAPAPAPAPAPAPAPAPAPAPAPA
Method: as §1

[2] = target: T1, BSA-coupled (GA)15 DPR protein peptide; experiment: indirect ELISA, BSA-coupled peptide coated, antibody titrated [also D00012 FIG. 3B]
Method: as §1

GA5: H-(GA)5HHHHHH-NH2 = target: T4, GA5: H-(GA)5HHHHHH-NH2; experiment: indirect ELISA, His-tagged peptide coated at 50 ug/ml, antibody titrated [also D00027 FIG. 7M]
T4 peptide: H-GAGAGAGAGAHHHHHH-NH2
Text: (§3) In brief, dipeptide repeat proteins were synthesized and purified by Schafer-N (Copenhagen, Denmark): GA₂₀: H-(GA)₂₀HHHHHH-NH₂; GA₁₀: H-(GA)₁₀HHHHHH-NH₂; GA₆: H-(GA)₆HHHHHH-NH₂; GA₅: H-(GA)₅HHHHHH-NH₂; GA₄: H-(GA)₄HHHHHH-NH₂; GA₃: H-(GA)₃HHHHHH-NH₂; GA₂: H-(GA)₂HHHHHH-NH₂; GP₂₀: H-(GP)₂₀HHHHHH-NH₂; GP₁₀: H-(GP)₁₀HHHHHH-NH₂; GP₆: H-(GP)₆HHHHHH-NH₂; GP₅: H-(GP)₅HHHHHH-NH₂; GP₄: H-(GP)₄HHHHHH-NH₂; GP₃: H-(GP)₃HHHHHH-NH₂; GP₂: H-(GP)₂HHHHHH-NH₂. GR₂₀: H-(GR)₂₀HHHHHH-NH₂; GR₁₀: H-(GR)₁₀HHHHHH-NH₂; GR₆: H-(GR)₆HHHHHH-NH₂; GR₅: H-(GR)₅HHHHHH-NH₂; GR₄: H-(GR)₄HHHHHH-NH₂; GR₃: H-(GR)₃HHHHHH-NH₂; GR₂: H-(GR)₂HHHHHH-NH₂; PA₂₀: H-(PA)₂₀HHHHHH-NH₂; PA₁₀: H-(PA)₁₀HHHHHH-NH₂; PA₆: H-(PA)₆HHHHHH-NH₂; PA₅: H-(PA)₅HHHHHH-NH₂; PA₄: H-(PA)₄HHHHHH-NH₂; PA₃: H-(PA)₃HHHHHH-NH₂; PA₂: H-(PA)₂HHHHHH-NH₂; PR₂₀: H-(PR)₂₀HHHHHH-NH₂; PR₁₀: H-(PR)₁₀HHHHHH-NH₂; PR₆: H-(PR)₆HHHHHH-NH₂; PR₅: H-(PR)₅HHHHHH-NH₂; PR₄: H-(PR)₄HHHHHH-NH₂; PR₃: H-(PR)₃HHHHHH-NH₂; PR₂: H-(PR)₂HHHHHH-NH₂. 96-well microplates (Corning Incorporated, Corning, USA) were coated with dipeptide repeat protein peptides at a concentration of 50 μg/ml in coating buffer (15 mM Na₂CO₃, 35 mM NaHCO₃, pH 9.42). Non-specific binding sites were blocked for 1 h at room temperature with PBS/0.1% Tween®-20 containing 2% BSA (Sigma-Aldrich, Buchs, Switzerland). Primary antibodies were diluted to the indicated concentrations and incubated 1 h at room temperature, followed by incubation with a donkey anti-human IgG Fcγ-specific antibody conjugated with HRP (Jackson ImmunoResearch Laboratories, Inc., West Grove, USA). Binding was determined by measurement of HRP activity in a standard colorimetric assay. EC₅₀ values were estimated by non-linear regression using GraphPad Prism software (San Diego, USA).

GA2: H-(GA)2HHHHHH-NH2 = target: T5, GA2: H-(GA)2HHHHHH-NH2; experiment: as above
T5 peptide: H-GAGAHHHHHH-NH2
Text: as §3

GA4: H-(GA)4HHHHHH-NH2 = target: T6, GA4: H-(GA)4HHHHHH-NH2; experiment: as above
T6 peptide: H-GAGAGAGAHHHHHH-NH2
Text: as §3

GA3: H-(GA)3HHHHHH-NH2 = target: T7, GA3: H-(GA)3HHHHHH-NH2; experiment: as above
T7 peptide: H-GAGAGAHHHHHH-NH2
Text: as §3

(PR)15: H-C(PR)15-OH = target: T8, (PR)15: H-C(PR)15-OH; experiment: indirect ELISA, uncoupled peptide coated, antibody titrated [also D00013 FIG. 3F]
T8 construct: synthetic, not coupled to BSA; also called poly-PR DPR protein peptide
T8 peptide: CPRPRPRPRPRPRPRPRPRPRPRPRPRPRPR
Method: as §1

PR6: H-(PR)6HHHHHH-NH2 = target: T9, PR6: H-(PR)6HHHHHH-NH2; experiment: indirect ELISA, coated His-tagged peptide
T9 peptide: H-PRPRPRPRPRPRHHHHHH-NH2
Procedure, shortened: as §2

PR10: H-(PR)10HHHHHH-NH2 = target: T10, PR10: H-(PR)10HHHHHH-NH2 (C-terminal amide); experiment: indirect ELISA, coated His-tagged peptide
T10 peptide: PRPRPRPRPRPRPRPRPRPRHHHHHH
Procedure, shortened: as §2

T1 sequence (peptide, as listed by the source limits assumed, chain 1 of 2): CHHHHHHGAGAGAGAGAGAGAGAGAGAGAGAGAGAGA
T1 sequence (P02769 25-607 limits assumed, chain 2 of 2): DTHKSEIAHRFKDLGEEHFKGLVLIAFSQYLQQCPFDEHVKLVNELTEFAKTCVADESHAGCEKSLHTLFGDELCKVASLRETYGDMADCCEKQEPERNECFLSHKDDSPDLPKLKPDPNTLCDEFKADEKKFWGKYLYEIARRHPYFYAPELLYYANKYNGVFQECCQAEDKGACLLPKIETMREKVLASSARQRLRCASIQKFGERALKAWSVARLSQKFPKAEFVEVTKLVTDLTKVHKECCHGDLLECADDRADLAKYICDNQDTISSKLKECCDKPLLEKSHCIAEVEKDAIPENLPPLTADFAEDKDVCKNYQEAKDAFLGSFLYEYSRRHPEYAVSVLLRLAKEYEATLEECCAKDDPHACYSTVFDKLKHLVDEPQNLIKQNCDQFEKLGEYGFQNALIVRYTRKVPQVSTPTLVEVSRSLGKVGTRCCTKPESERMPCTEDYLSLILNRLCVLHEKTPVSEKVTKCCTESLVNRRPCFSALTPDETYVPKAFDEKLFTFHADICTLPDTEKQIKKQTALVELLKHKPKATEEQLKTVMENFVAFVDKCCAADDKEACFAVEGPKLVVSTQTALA

B1: NI-308.15O7 (antibody, V domains shown)
VH: QVQLVESGGGVVQPGRSLRLSCAASGFTFSNHAMHWVRQAPGKGLEWVAVISYDGENTYYADSIEGRFTISRDNFKNTLFLQMYSLTADDTAMYFCARGGRRGHFTSYYLDYWGQGTLVTVSS
VL: CDIQMTQSPSSLSASVGDRVTITCRASQNIDKYLNWYQQIPGKAPKLLIYAASSLHSGVPSRFSGSGSGTDFSLTISSLQPEDFAIYYCQQSYSSFRTFGQGTKLEIK
[1]
  EC50: 0.41 nM

B2: NI-308.4M1 (antibody, V domains shown)
VH: EVQLVETGGGVVQPGGSLRLSCEASGFTIGTYAMHWVRQFPGKGLDWVAVISFDGTTEYYTDAVKGRFTISRDNAKNTLYLQMNYLRGDDTAIYFCARDFTSSGETGSWTQVPDLWGQGTLVTVSS
VL: CEIVMTQSPATLSLSPGERATLSCRASQSVTKYLAWYQQKPGQAPRLLIYDVSYRAAGTPARFSGSGSGTDFTLTISSLEPEDFAVYYCHQRSSWPPVTFGGGTKVEIK
notes: Recombinant complete human IgG1, kappa
PA20: H-(PA)20HHHHHH-NH2
  EC50: 0.06 nM
(PA)15: H-C(PA)15-OH
  EC50: 0.1 nM

B3: NI-308.18F7 (antibody, V domains shown)
VH: QVQLQESGPGLVKPSETLSVTCTVSGGSINDYYWNWIRQPAGKGLEWIGRIYASGTINYNPSLQSRVTMSIDTSKNQFSLDLISVSAADTAVYYCARWGQVVGDYYYGMDVWGQGTTVTVSS
VL: EIVLTQSPLSLSVTPGEPASISCKSSQSLQHTNGYNYLDWYLLKPGQSPQLLIFLTSNRASGVPDRFSGSGSGTNFTLKISRVEAEDVGVYYCMEGIQLWTFGQGTKLEIK
notes: as for B2
[2]
  EC50: 0.11 nM

B4: NI-308.6B11 (antibody, V domains shown)
VH: EVQLVQSGAEVKRPGASVKVSCKVSGYTLTELSMHWVRQAPGKGLEWMGGFDPEDGETVYAQKFQGRVTMTEDTSTDTAYMELSSLRSEDTALYHCATYGSSWHWNEGNEGSYYFDYWGQGTLVTVSS
VL: CDIQMTQSPSSLSASVGDRVTITCQASQDISIYLNWYQQKPGKAPKLLIYDASNLETGVPSRFSGSGSGTDFTFTISGLQPEDVARYYCQQYDDLPITFGQGTRLEIK
notes: as for B2
GA5: H-(GA)5HHHHHH-NH2
  binding result: no binding (tested: about 4x10^5 pM (last point))
GA2: H-(GA)2HHHHHH-NH2
  binding result: no binding (tested: about 4x10^5 pM (last point))
GA4: H-(GA)4HHHHHH-NH2
  binding result: no binding (tested: about 4x10^5 pM (last point))
GA3: H-(GA)3HHHHHH-NH2
  binding result: no binding (tested: about 4x10^5 pM (last point))

B5: NI-308.24E11 (antibody, V domains shown)
VH: QVQLQESGPGLVKPSETLSLTCTVSTTSLRSYFWSWIRQPPGKGLEWIGYVYYSGSTIYNPSLKNRVTISIDTSKNQFSLNLRSVTAADTAMYFCARGVPAETDARDFPPYYFDHWGQGTLVTVSS
VL: CDIQLTQSPSSLSASVGNRITFTCQASQDIRYYLNWYQQKPGKAPKLLIYDVSNLDTGVPPRFSGSGSGTNFTFTISSLQPEDIAVYYCQQYEGLPVTFGGGTKVEIK
notes: as for B2
(PR)15: H-C(PR)15-OH
  EC50: 11.3 nM
PR6: H-(PR)6HHHHHH-NH2
  EC50: > 200 nM
PR10: H-(PR)10HHHHHH-NH2
  EC50: 31.7 nM
